US20050153395A1, “Unique integrin binding site in connective tissue growth factor (CTGF)” (CHILDREN'S HOSPITAL INC., priority 2003, published 2005)

Tests used:
[1] = test system: pancreatic stellate cells (PSC); test: PSC adhesion assay on coated wells; format: cell-based, rat; settings: coated at 2 μg/ml
Text: Rat PSCs were isolated by a modification of the method described by Phillips et al., Gut; 52:677-82, 2003. Briefly, pancreatic tissue was digested in situ with 0.03% collagenase P (Roche, Indianapolis, Ind.) in HBSS by perfusion through the thoracic aorta. This protocol was approved by the Institutional Animal Care and Use Committee of Children's Research Institute, Columbus, Ohio. The tissue was pooled, minced with scissors, and then digested with 0.05% collagenase P, 0.02% protease XIV (Sigma, St. Louis), and DNase I (Roche, Indianapolis, Ind.) in HBSS. The resulting cell suspension was centrifuged in a 12% Optiprep gradient at 1400 g for 14 minutes. Stellate cells separated into a hazy band just above the interface of a the gradient and the aqueous buffer. This band was harvested, and the cells washed and resuspended in DMEM supplemented with 25 mM Hepes buffer, 10% FBS, and 100 U/ml penicillin in, 100 μg/ml streptomycin. The, cells were maintained at 37° C. in a humidified atmosphere of 5% CO2/95% air.
The ability of activated PSC to adhere to non-tissue culture plastic microtiter wells coated with recombinant CTGF1-4, CTGF3-4 or CTGF4 was investigated. The solid phase binding assay was carried out as described in Example 2. […] To assess the possibility that CTGF-mediated PSC adhesion involved cell surface integrins, the effect of divalent cations on cell adhesion was examined, as described in Example 2. […]
Because CTGF is a heparin-binding protein, this property was further investigated.
To identify the peptides that bind to PSCs, cell adhesion assays were carried out as described in Example 3.
To further investigate the peptide binding, P2 or P5 (10 μM) or vehicle buffer alone (no add) were added to PSC cell suspensions for 30 minutes at room temperature.

PSCs [2] = test: PSC chemotaxis (migration) assay in culture insert; format: cell-based, rat; settings: substance in lower chamber
Procedure: To examine whether CTGF plays a role in PSC migration, a chemotaxis assay was carried out in which the migratory behavior of PSCs in the upper chamber of a culture insert was assessed following addition of CTGF to the lower chamber. […] PSC migration was also promoted by FN, PDGF or TGF-β1.

integrin α5β1 = integrin α5β1 (Homo sapiens, UniProt P05556+P08648); test: Solid phase ELISA of integrin α5β1 binding; settings: for binding to integrin α5β1: coated at 2 μg/ml, 1 μg/ml integrin
Chain of integrin α5β1 (P08648 42-894 limits assumed): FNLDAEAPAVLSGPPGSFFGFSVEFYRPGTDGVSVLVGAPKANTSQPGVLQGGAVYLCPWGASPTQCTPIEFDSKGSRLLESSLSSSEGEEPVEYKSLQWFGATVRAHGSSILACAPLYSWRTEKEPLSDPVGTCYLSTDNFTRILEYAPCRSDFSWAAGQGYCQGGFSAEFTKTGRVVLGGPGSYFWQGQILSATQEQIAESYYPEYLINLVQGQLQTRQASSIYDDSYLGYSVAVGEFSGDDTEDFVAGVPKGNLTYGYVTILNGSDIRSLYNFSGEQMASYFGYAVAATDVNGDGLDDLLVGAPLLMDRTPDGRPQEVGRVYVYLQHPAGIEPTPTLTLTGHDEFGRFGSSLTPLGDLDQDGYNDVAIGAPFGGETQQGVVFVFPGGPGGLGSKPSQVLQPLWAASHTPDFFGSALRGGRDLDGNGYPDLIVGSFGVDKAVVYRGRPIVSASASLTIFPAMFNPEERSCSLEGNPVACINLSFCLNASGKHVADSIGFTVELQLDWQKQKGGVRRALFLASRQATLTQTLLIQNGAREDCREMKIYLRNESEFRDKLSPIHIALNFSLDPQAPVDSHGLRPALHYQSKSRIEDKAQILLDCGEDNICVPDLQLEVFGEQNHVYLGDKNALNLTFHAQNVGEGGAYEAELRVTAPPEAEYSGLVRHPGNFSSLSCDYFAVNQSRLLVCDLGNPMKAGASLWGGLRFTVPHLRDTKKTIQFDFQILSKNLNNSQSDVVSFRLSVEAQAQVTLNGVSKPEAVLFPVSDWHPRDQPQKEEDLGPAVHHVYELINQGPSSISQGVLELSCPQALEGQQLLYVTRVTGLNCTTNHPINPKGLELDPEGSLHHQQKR
Chain of integrin α5β1 (P08648 895-1049 partner limits assumed): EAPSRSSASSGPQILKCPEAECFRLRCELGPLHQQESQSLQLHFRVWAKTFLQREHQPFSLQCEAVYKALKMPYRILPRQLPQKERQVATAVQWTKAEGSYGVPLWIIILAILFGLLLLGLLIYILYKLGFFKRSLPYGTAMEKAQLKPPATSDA
Chain of integrin α5β1 (P05556 21-798): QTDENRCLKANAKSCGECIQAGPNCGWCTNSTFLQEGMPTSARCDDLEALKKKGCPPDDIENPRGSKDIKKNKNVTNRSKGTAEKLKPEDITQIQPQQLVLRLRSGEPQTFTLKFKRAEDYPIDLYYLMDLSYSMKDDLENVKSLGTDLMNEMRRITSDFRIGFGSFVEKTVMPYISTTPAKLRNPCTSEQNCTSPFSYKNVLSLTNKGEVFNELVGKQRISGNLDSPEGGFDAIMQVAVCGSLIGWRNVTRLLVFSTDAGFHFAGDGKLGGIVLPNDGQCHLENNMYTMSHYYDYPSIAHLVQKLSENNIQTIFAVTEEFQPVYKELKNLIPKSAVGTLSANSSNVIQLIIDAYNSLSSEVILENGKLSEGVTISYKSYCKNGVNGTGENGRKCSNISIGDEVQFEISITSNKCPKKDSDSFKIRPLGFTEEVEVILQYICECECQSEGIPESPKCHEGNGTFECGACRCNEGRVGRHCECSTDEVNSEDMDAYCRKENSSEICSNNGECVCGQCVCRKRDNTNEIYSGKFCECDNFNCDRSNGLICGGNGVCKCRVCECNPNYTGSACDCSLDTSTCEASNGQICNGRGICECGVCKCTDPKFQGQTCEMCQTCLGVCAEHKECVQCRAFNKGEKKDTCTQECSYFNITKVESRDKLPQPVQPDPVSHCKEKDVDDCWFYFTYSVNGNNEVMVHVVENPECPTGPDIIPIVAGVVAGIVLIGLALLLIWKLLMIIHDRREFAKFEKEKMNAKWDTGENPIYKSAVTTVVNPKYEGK
Procedure: In a second approach, a solid phase binding assay was used in which CTGF1-4 or FN were individually coated onto microtiter wells that were subsequently incubated with purified integrin α5β1. The presence of immobilized integrin α5β1 was detected by ELISA using an anti-integrin α5β1 antibody similar to the methods described in Example 3 above. In addition, CTGF1-4 bound to integrin α5β1 in a dose-dependent manner, with maximal binding at 2 μg/ml CTGF. This level of CTGF1-4 (2 μg/ml) binding was the same as that elicited by 2 μg/ml FN, a well known ligand of integrin α5β1. In a similar experiment, 2 μg/ml of CTGF1-4;CTGF3-4 or CTGF4 were individually precoated onto microtiter wells. Using the solid-phase assay, integrin α5β1 bound to CTGF1-4, CTGF3-4 or CTGF4 See FIG. 5 (Panel B).
To directly analyze whether α5β1 integrin binds to CTGF4, microtiter wells coated with CTGF4 (2 μg/ml) or FN (4 μg/ml) were used in an ELISA assay to detect integrin binding, as described in Example 3. For these assays, 1 μg/ml integrin α5β1, alone or in the presence of 35 μM of P2peptide (CTGF[257-272]) and 35 μM of P5 peptide (CTGF [285-291]), were added to the precoated plates. […] The binding between CTGF4 and integrin α5 β1 was blocked by peptide P5 (CTGF [285-291]) or peptide P2 (CTGF[257-272]). […]

PSCs [3] = test: PSC DNA synthesis, [3H]thymidine incorporation; format: cell-based, rat; settings: 24 hours; CTGF1-4 effect in 0.1% serum, not in serum-free medium
Procedure: To measure the effect of CTGF on cell proliferation, DNA synthesis was measured by ^3H incorporation in PSCs. The cells were incubated for 24 hours with 0.2 μCi [^3H] thymidine in each well (24-well plate). The incorporation of [^3H] thymidine into PSC DNA was determined using a scintillation counter after the cells had been washed with PBS, fixed with 10% methanol, treated with cold 5% trichloroacetic acid, and lysed in 0.3 N NaOH.

collagen I mRNA = test: Collagen I mRNA expression in PSCs; format: cell-based, rat
[4] = test system: hepatic stellate cells (HSC); test: HSC adhesion assay on coated wells (CyQUANT fluorescence); format: cell-based, rat
Procedure: CTGF4 is known to be expressed in hepatic stellate cells (HSC) and to induce proliferation and extracellular matrix (ECM) production in these cells. (Williams et al., J Hepatol 32, 754-761, 2000; Paradis et al., Lab Invest 82, 767-774, 2002). The following experiments were carried out to determine if HSCs adhere to CTGF. HSCs were isolated from normal Sprague-Dowley rate by sequential perfusion with pronase/collagenase and purified by density gradient separation as described in Vyas et al. (Gastroenterology 109: 889-898, 1995).
The cells were subsequently detached using 1 mM EDTA PBS (137 mM NaCl, 2.7 mM KCl, 4.3 mM Na2HPO4, 1.4 mM KH2PO4, pH 7.3), washed twice in DMEM and resuspended in serum free medium containing 0.5% BSA. The cells-were plated (1.25×10^4 cells/well) in a 96 well plate coated with one of the following: 2 μg/ml CTGF isoform (CTGF1-4, CTGF3-4, CTGF4), 1 μg/ml laminin, or 4 μg/ml vitronectin and incubated for 20 minutes at 37° C. Subsequently the cells were washed with PBS and the adherent cells were fixed with 10% formalin and stained with CyQUANT GR dye/cell lysis buffer (Molecular Probes , Eugene, Oreg.) according to the manufacturer's instructions. The number of cells that adhered to CTGF isoforms or ECM protein was quantified by measuring the sample fluorescence intensity at Ex/Em: 480/520 nm using a micro-plate reader (CytoFluor™ 2350).
To determine if the CTGF-mediated HSC adhesion was carried out through integrin receptors, the experiment described above were carried out in the presence and absence of 10 mM EDTA. […] It is widely believed that Mn^2+ induces conformational shifts that mimic the physiological activation of β1 and β3 integrins (Roberts et al., J Biol Chem 278: 1975-1985, 2003, van der Pauw et al., J Periodontal Res 37: 317-323, 2002) as Mn^2+-induced activation leads to enhanced ligand-binding affinity and cell adhesion (Mould et al., J Biol Chem 277: 19800-19805, 2002, Loftus & Liddington J Clin Invest 100: S77-81, 1997, Lin et al., J Biol Chem 272: 14236-14243, […]). […]

B1: CTGF3-4: C-terminal CTGF fragment comprising modules 3 and 4 (protein)
chain: AYRLEDTFGPDPTMIRANCLVQTTEWSACSKTCGMGISTRVTNDNASCRLEKQSRLCMVRPCEADLEENIKKGKKCIRTPKISKPIKFELSGCTSMKTYRAKFCGVCTDGRCCTPHRTTTLPVEFKCPDGEVMKKNMMFIKTCACHYNCPGDNDIFESLYYRKMYGDMA
PSC adhesion supported by the coated substance [1]: significantly promoted
PSC migration (PSCs [2]): induced PSC migration
binding to integrin α5β1 (integrin α5β1): bound

B2: CTGF1-4: full length CTGF protein, 38 kDa (protein)
chain: QNCSGPCRCPDEPAPRCPAGVSLVLDGCGCCRVCAKQLGELCTERDPCDPHKGLFCDFGSPANRKIGVCTAKDGAPCIFGGTVYRSGESFQSSCKYQCTCLDGAVGCMPLCSMDVRLPSPDCPFPRRVKLPGKCCEEWVCDEPKDQTVVGPALAAYRLEDTFGPDPTMIRANCLVQTTEWSACSKTCGMGISTRVTNDNASCRLEKQSRLCMVRPCEADLEENIKKGKKCIRTPKISKPIKFELSGCTSMKTYRAKFCGVCTDGRCCTPHRTTTLPVEFKCPDGEVMKKNMMFIKTCACHYNCPGDNDIFESLYYRKMYGDMA
PSC adhesion supported by the coated substance [1]: significantly promoted
PSC migration (PSCs [2]): induced PSC migration
PSC proliferation (DNA synthesis) (PSCs [3]): significantly enhanced
collagen I mRNA expression in PSCs (collagen I mRNA): significantly increased
binding to integrin α5β1 (integrin α5β1): bound
binding to integrin α5β1, maximal binding at (integrin α5β1; coated protein): 2 µg/mL

B3: Heparinase I: enzyme that acts on highly sulfated heparan sulfate proteoglycans (protein, UniProt Q05819 22-384, looked up)
Heparin lyase I: QQKKSGNIPYRVNVQADSAKQKAIIDNKWVAVGINKPYALQYDDKLRFNGKPSYRFELKAEDNSLEGYAAGETKGRTELSYSYATTNDFKKFPPSVYQNAQKLKTVYHYGKGICEQGSSRSYTFSVYIPSSFPDNATTIFAQWHGAPSRTLVATPEGEIKTLSIEEFLALYDRMIFKKNIAHDKVEKKDKDGKITYVAGKPNGWKVEQGGYPTLAFGFSKGYFYIKANSDRQWLTDKADRNNANPENSEVMKPYSSEYKTSTIAYKMPFAQFPKDCWITFDVAIDWTKYGKEANTILKPGKLDVMMTYTKNKKPQKAHIVNQQEILIGRNDDDGYYFKFGIYRVGNSTVPVTYNLSGYSETAR
inhibition of HSC adherence to CTGF[257-272] ([4]; peptide-coated wells, heparin 2 μg/ml): abrogated
inhibition of CTGF4-mediated HSC adhesion ([4]; wells coated 2 μg/ml CTGF4, EDTA 10 mM, GRGDsp 1 mM, Echistatin 2 μM, antibody/IgG 25 μg/ml, heparin 2 μg/ml): unable to adhere
inhibition of vitronectin-mediated HSC adhesion ([4]; wells coated 4 μg/ml vitronectin): adhered to vitronectin
